Measured values as given in patent US20260216242A1 (ALMAC DISCOVERY, published 2026).

T1: human ALPL on CHO cells (human, UniProt P05186 18-501)
T1 construct: whole, on cells; also called CHO-ALPL
T1 sequence (looked up): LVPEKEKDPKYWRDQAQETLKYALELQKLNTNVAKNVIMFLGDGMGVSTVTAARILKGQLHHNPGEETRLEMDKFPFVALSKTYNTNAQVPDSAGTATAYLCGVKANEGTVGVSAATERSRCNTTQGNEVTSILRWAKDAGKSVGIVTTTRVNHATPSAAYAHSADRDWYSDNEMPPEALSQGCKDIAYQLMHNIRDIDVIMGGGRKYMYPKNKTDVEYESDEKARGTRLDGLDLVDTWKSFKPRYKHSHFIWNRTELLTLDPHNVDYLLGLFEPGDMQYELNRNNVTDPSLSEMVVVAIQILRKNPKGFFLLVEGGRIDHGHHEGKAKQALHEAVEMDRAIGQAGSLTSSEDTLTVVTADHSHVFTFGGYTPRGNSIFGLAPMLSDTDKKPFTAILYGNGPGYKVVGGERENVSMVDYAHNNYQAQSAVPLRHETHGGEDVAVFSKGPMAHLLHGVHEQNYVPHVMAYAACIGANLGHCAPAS

B1: A06-E06-hFc-vcPAB-MMAE [G4S]1 (Fc fusion, DAR 4)
chain 1: QVHLVESGGGLVQAGGSLRLSCAASGRTFLSMGWFRQAPGKEREFVAAISWTGGSTGYADSVKGRFTISRESDKETMYLQMNSLKPEDTAVYYCAARGDVYYGGDDATRYKYWGQGTQVTVSSGGGGSEPKSSDKTHTCPPCPAPELLGGPCVFLFPPKPKDTLMISRTPEVTCVVVDVSHEDPEVKFNWYVDGVEVHNAKTKPREEQYNSTYRVVSVLTVLHQDWLNGKEYKCKVSNKALPAPIEKTISKAKGQPREPQVYTLPPSRDELTKNQVSLYCLVKGFYPSDIAVEWESNGQPENNYKTTPPVLDSDGSFFLYSKLTVDKSRWQQGNVFSCSVMHEALHNHYTQKSLCLSPGK
chain 2: QVHLVESGGGLVQAGGSLRLSCAASRRSFSEYAMGWFRQAPGKEREFVAAIGWSGVIEYADSVKGRFTISRDNAKDTVYLQMNSLKPEDTAVYYCAAGLGIRVVSQTPAYWGQGTQVTVSSGGGGSEPKSSDKTHTCPPCPAPELLGGPCVFLFPPKPKDTLMISRTPEVTCVVVDVSHEDPEVKFNWYVDGVEVHNAKTKPREEQYNSTYRVVSVLTVLHQDWLNGKEYKCKVSNKALPAPIEKTISKAKGQPREPQVYTLPPSRDELTKNQVSLTCLVKGFYPSDIAVEWESNGQPENNYKTTPPVLDSDGSFFLTSKLTVDKSRWQQGNVFSCSVMHEALHNHYTQKSLCLSPGK
modifications: MC-vc-PAB-MMAE on Cys 239 and Cys 442 (EU numbering)
notes: Biparatopic drug conjugate, DAR 4; also called #710
B2: A06-E10-hFc-vcPAB-MMAE [G4S]1 (Fc fusion, DAR 4)
chain 1: QVHLVESGGGLVQAGGSLRLSCAASGRTFLSMGWFRQAPGKEREFVAAISWTGGSTGYADSVKGRFTISRESDKETMYLQMNSLKPEDTAVYYCAARGDVYYGGDDATRYKYWGQGTQVTVSSGGGGSEPKSSDKTHTCPPCPAPELLGGPCVFLFPPKPKDTLMISRTPEVTCVVVDVSHEDPEVKFNWYVDGVEVHNAKTKPREEQYNSTYRVVSVLTVLHQDWLNGKEYKCKVSNKALPAPIEKTISKAKGQPREPQVYTLPPSRDELTKNQVSLYCLVKGFYPSDIAVEWESNGQPENNYKTTPPVLDSDGSFFLYSKLTVDKSRWQQGNVFSCSVMHEALHNHYTQKSLCLSPGK
chain 2: QVQLVESGGGLVQAGGSLRLSCAVSGRALSDYNIGWFRQAPGKEREFVARKTWDGSSTRYDDSVKGRFTVSIEDAKNTAYLQMSSLKTEDTAVYYCAAGRYSRARGWEYDYWGQGTQVTVSSGGGGSEPKSSDKTHTCPPCPAPELLGGPCVFLFPPKPKDTLMISRTPEVTCVVVDVSHEDPEVKFNWYVDGVEVHNAKTKPREEQYNSTYRVVSVLTVLHQDWLNGKEYKCKVSNKALPAPIEKTISKAKGQPREPQVYTLPPSRDELTKNQVSLTCLVKGFYPSDIAVEWESNGQPENNYKTTPPVLDSDGSFFLTSKLTVDKSRWQQGNVFSCSVMHEALHNHYTQKSLCLSPGK
modifications: MC-vc-PAB-MMAE on Cys 239 and Cys 442 (EU numbering)
notes: Biparatopic drug conjugate, DAR 4; also called #711
B3: A06-F05-hFc-vcPAB-MMAE [G4S]1 (Fc fusion, DAR 4)
chain 1: QVHLVESGGGLVQAGGSLRLSCAASGRTFLSMGWFRQAPGKEREFVAAISWTGGSTGYADSVKGRFTISRESDKETMYLQMNSLKPEDTAVYYCAARGDVYYGGDDATRYKYWGQGTQVTVSSGGGGSEPKSSDKTHTCPPCPAPELLGGPCVFLFPPKPKDTLMISRTPEVTCVVVDVSHEDPEVKFNWYVDGVEVHNAKTKPREEQYNSTYRVVSVLTVLHQDWLNGKEYKCKVSNKALPAPIEKTISKAKGQPREPQVYTLPPSRDELTKNQVSLYCLVKGFYPSDIAVEWESNGQPENNYKTTPPVLDSDGSFFLYSKLTVDKSRWQQGNVFSCSVMHEALHNHYTQKSLCLSPGK
chain 2: QVQLVESGGGLVQAGGSLRLSCAASGRAFGDYNIGWFRQAPGKEREFVARRTWDGSSTRYDDSVKGRFTVSIDNAKNTAYLQMNSLKTEDTAVYYCAAGRYSRVRGWEYDYWGQGTQVTVSSGGGGSEPKSSDKTHTCPPCPAPELLGGPCVFLFPPKPKDTLMISRTPEVTCVVVDVSHEDPEVKFNWYVDGVEVHNAKTKPREEQYNSTYRVVSVLTVLHQDWLNGKEYKCKVSNKALPAPIEKTISKAKGQPREPQVYTLPPSRDELTKNQVSLTCLVKGFYPSDIAVEWESNGQPENNYKTTPPVLDSDGSFFLTSKLTVDKSRWQQGNVFSCSVMHEALHNHYTQKSLCLSPGK
modifications: MC-vc-PAB-MMAE on Cys 239 and Cys 442 (EU numbering)
notes: Biparatopic drug conjugate, DAR 4
B4: A06-E06 hFc-vcPAB-MMAE [G4S]3 (Fc fusion, DAR 4)
chain 1: QVHLVESGGGLVQAGGSLRLSCAASGRTFLSMGWFRQAPGKEREFVAAISWTGGSTGYADSVKGRFTISRESDKETMYLQMNSLKPEDTAVYYCAARGDVYYGGDDATRYKYWGQGTQVTVSSGGGGSGGGGSGGGGSEPKSSDKTHTCPPCPAPELLGGPCVFLFPPKPKDTLMISRTPEVTCVVVDVSHEDPEVKFNWYVDGVEVHNAKTKPREEQYNSTYRVVSVLTVLHQDWLNGKEYKCKVSNKALPAPIEKTISKAKGQPREPQVYTLPPSRDELTKNQVSLYCLVKGFYPSDIAVEWESNGQPENNYKTTPPVLDSDGSFFLYSKLTVDKSRWQQGNVFSCSVMHEALHNHYTQKSLCLSPGK
chain 2: QVHLVESGGGLVQAGGSLRLSCAASRRSFSEYAMGWFRQAPGKEREFVAAIGWSGVIEYADSVKGRFTISRDNAKDTVYLQMNSLKPEDTAVYYCAAGLGIRVVSQTPAYWGQGTQVTVSSGGGGSGGGGSGGGGSEPKSSDKTHTCPPCPAPELLGGPCVFLFPPKPKDTLMISRTPEVTCVVVDVSHEDPEVKFNWYVDGVEVHNAKTKPREEQYNSTYRVVSVLTVLHQDWLNGKEYKCKVSNKALPAPIEKTISKAKGQPREPQVYTLPPSRDELTKNQVSLTCLVKGFYPSDIAVEWESNGQPENNYKTTPPVLDSDGSFFLTSKLTVDKSRWQQGNVFSCSVMHEALHNHYTQKSLCLSPGK
modifications: MC-vc-PAB-MMAE on Cys 239 and Cys 442 (EU numbering)
notes: Biparatopic drug conjugate, DAR 4; also called #639
B5: A06-E10 hFc-vcPAB-MMAE [G4S]3 (Fc fusion, DAR 4)
chain 1: QVHLVESGGGLVQAGGSLRLSCAASGRTFLSMGWFRQAPGKEREFVAAISWTGGSTGYADSVKGRFTISRESDKETMYLQMNSLKPEDTAVYYCAARGDVYYGGDDATRYKYWGQGTQVTVSSGGGGSGGGGSGGGGSEPKSSDKTHTCPPCPAPELLGGPCVFLFPPKPKDTLMISRTPEVTCVVVDVSHEDPEVKFNWYVDGVEVHNAKTKPREEQYNSTYRVVSVLTVLHQDWLNGKEYKCKVSNKALPAPIEKTISKAKGQPREPQVYTLPPSRDELTKNQVSLYCLVKGFYPSDIAVEWESNGQPENNYKTTPPVLDSDGSFFLYSKLTVDKSRWQQGNVFSCSVMHEALHNHYTQKSLCLSPGK
chain 2: QVQLVESGGGLVQAGGSLRLSCAVSGRALSDYNIGWFRQAPGKEREFVARKTWDGSSTRYDDSVKGRFTVSIEDAKNTAYLQMSSLKTEDTAVYYCAAGRYSRARGWEYDYWGQGTQVTVSSGGGGSGGGGSGGGGSEPKSSDKTHTCPPCPAPELLGGPCVFLFPPKPKDTLMISRTPEVTCVVVDVSHEDPEVKFNWYVDGVEVHNAKTKPREEQYNSTYRVVSVLTVLHQDWLNGKEYKCKVSNKALPAPIEKTISKAKGQPREPQVYTLPPSRDELTKNQVSLTCLVKGFYPSDIAVEWESNGQPENNYKTTPPVLDSDGSFFLTSKLTVDKSRWQQGNVFSCSVMHEALHNHYTQKSLCLSPGK
modifications: MC-vc-PAB-MMAE on Cys 239 and Cys 442 (EU numbering)
notes: as for B3
B6: A06-F05 hFc-vcPAB-MMAE [G4S]3 (Fc fusion, DAR 4)
chain 1: QVHLVESGGGLVQAGGSLRLSCAASGRTFLSMGWFRQAPGKEREFVAAISWTGGSTGYADSVKGRFTISRESDKETMYLQMNSLKPEDTAVYYCAARGDVYYGGDDATRYKYWGQGTQVTVSSGGGGSGGGGSGGGGSEPKSSDKTHTCPPCPAPELLGGPCVFLFPPKPKDTLMISRTPEVTCVVVDVSHEDPEVKFNWYVDGVEVHNAKTKPREEQYNSTYRVVSVLTVLHQDWLNGKEYKCKVSNKALPAPIEKTISKAKGQPREPQVYTLPPSRDELTKNQVSLYCLVKGFYPSDIAVEWESNGQPENNYKTTPPVLDSDGSFFLYSKLTVDKSRWQQGNVFSCSVMHEALHNHYTQKSLCLSPGK
chain 2: QVQLVESGGGLVQAGGSLRLSCAASGRAFGDYNIGWFRQAPGKEREFVARRTWDGSSTRYDDSVKGRFTVSIDNAKNTAYLQMNSLKTEDTAVYYCAAGRYSRVRGWEYDYWGQGTQVTVSSGGGGSGGGGSGGGGSEPKSSDKTHTCPPCPAPELLGGPCVFLFPPKPKDTLMISRTPEVTCVVVDVSHEDPEVKFNWYVDGVEVHNAKTKPREEQYNSTYRVVSVLTVLHQDWLNGKEYKCKVSNKALPAPIEKTISKAKGQPREPQVYTLPPSRDELTKNQVSLTCLVKGFYPSDIAVEWESNGQPENNYKTTPPVLDSDGSFFLTSKLTVDKSRWQQGNVFSCSVMHEALHNHYTQKSLCLSPGK
modifications: MC-vc-PAB-MMAE on Cys 239 and Cys 442 (EU numbering)
notes: as for B3

What follows are binders tested against T1, human ALPL on CHO cells (assay: flow cytometry, CHO cells stably expressing human ALPL; PDC detected with FITC anti-human Ab).
Method: Biparatopic VHH-hFc drug conjugates were assessed for human ALPP, ALPPL2, ALPI and ALPL cell-surface binding by flow cytometry. Binders were screened on CHO cells stably expressing human ALPP, ALPPL2, ALPI or ALPL.
Cell surface binding of test agents to hALPP isoforms was characterized in four CHO-ALPP isoform transfectant cell lines (CHO-ALPP, CHO-ALPPL2, CHO-ALPI and CHO-ALPL) and the resulting KDapp values determined. Adherent cells were detached from tissue culture flasks by incubating with 0.1% EDTA/PBS solution at 37° C. for […] or until cells detached easily. Cells were re-suspended in ice-cold PBS/2% FCS in 15 ml tubes and centrifuged at 1700 rpm for 5 mins at 4° C. Supernatant was removed and the cell pellet re-suspended in PBS/2% FCS. […] Cells were incubated with 100 μl of test agents at a range of concentrations, plus controls for 1 hr on ice. The sample plate was centrifuged at 1700 rpm for 5 mins at 4° C. The supernatant was removed, and a wash performed by re-suspending the cell pellets in 0.25 mL of ice-cold PBS/2% FCS using a multichannel pipette. Samples were again centrifuged at 1700 rpm for 5 min at 4° C. Supernatant was removed and two further washes performed as described. After the final wash and centrifugation step, excess liquid was removed by blotting the plate on tissue paper. Binding of VHH-hFc agents was determined by adding 100 μl of Fitc-anti-human Ab (ThermoFisher) and incubating for 30 mins on ice in the dark. Wash steps were performed as described previously. All cell pellets were finally re-suspended in 0.28 ml of ice-cold PBS/2% FCS and left on ice in the dark prior to analysis on a Merck-Millipore Guava EasyCyte HT or Thermo Fisher Attune N×T flow cytometer.

Binding result, no binding (tested: 350 nM):
B1
B2
B3
B4
B5
B6
